Results on 57 substances are retold here after the supplement of paper PMC12042874.

± gives the uncertainty stated by the source.

The nature of this data set: amyloid nucleation score (Sup35N fusion, yeast selection) (log enrichment); library NNK1; higher = more nucleation; inactive = no reads after selection. The method, boiled down:
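The nucleation score equals the log enrichment of output over input reads from DiMSum, centred on the mode score of non-aggregating sequences. It was computed only for sequences with 100 or more input reads. The reads came from Illumina sequencing of plasmid inserts from psi-negative yeast expressing Sup35N fused to peptides of 20 random codons, induced with 100 μM copper sulfate for 24 hours and grown 7 days at 30°C without adenine and uracil.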

In the case of YREDKHCIHCWGVMGV, the amyloid nucleation score was -2.16 ± 2.4.
For FTISGLYSFFVSLLGKEYYG, the amyloid nucleation score is -0.074 ± 0.43.
For HCRYMMSRVILSCILARPQ the value was 2.55 ± 0.15; for LPGMVSL, 0.33 ± 0.42.
With HTLTPAHPTNGVVT, the amyloid nucleation score was -0.871 ± 1.3.
For the substance TRALVFRQYYIAPVHCYYLG, the amyloid nucleation score was found to be 3.54 ± 0.19.
The same measure for ANFGFWFAFYSAARSDRTSL: -0.421 ± 1.2; for LSYDEYPGMNASAAIQGLVV: -0.556 ± 1.4.
The same measure for ASLKCEKGVCGVFGWSGVGH: -0.687 ± 1.4; for KVCLRRAAYYRVLVHSCHFR: -0.585 ± 0.43.
The same measure for MLRFRCVRQP: 0.102 ± 0.35.
Turning to INSAHYELN, the amyloid nucleation score is -1.51 ± 2.4.
For SLYKMVMCNGYSCLLLYLVC the value was 0.353 ± 0.97.
FLHRM: the amyloid nucleation score came to 0.062 ± 0.75.
For QFEFNFTKEDQYYEGFPVDW the value was -0.827 ± 1.7.
For ALPHSKFKAMVFRSLWRDRG the value was 0.51 ± 1.2; for PGLMDLSVCKKCWNCCYTYD, -0.294 ± 0.65; for SSLKDSNLWSEIGTLWLTVM, -0.091 ± 0.25.
Consider VHSGTKEKGF, for which the amyloid nucleation score was 1.05 ± 0.54.
Turning to NSCWVEKSNTV, the amyloid nucleation score was 0.043 ± 0.62.
The same measure for MVLRHRKCLSAFPWAFHAPY: 1.49 ± 0.85.
Take SRLIY: the amyloid nucleation score was -0.894 ± 0.4.
Regarding DSSHVRLWQYWIMWMLVVNA, the amyloid nucleation score turned out to be 1.06 ± 0.39.
The same measure for WGMIWCTIYGSVSNNNINLV: 4.2 ± 0.053.
The same measure for LFYVMWWMAGVGLRRGYWAN: “inactive”.
The same measure for LSYRCVVYSVMIWSDIRALV: 0.655 ± 0.3.
Regarding RGSWIPVKQRLKVPQRDGLG, the amyloid nucleation score worked out at 0.207 ± 0.28.
Regarding RCVETSFTSGFIVGELLMRM, the amyloid nucleation score was -0.84 ± 1.3.
Substance FRDFWLDNVLNMMVGCAARD returned an amyloid nucleation score of -0.692 ± 1.2.
Turning to NCRGKREMGRKSSRSLVHGW, the amyloid nucleation score is -0.039 ± 0.49.
As for DIRIPMHLSIDLQVVLSLRY, the amyloid nucleation score came to 0.172 ± 0.63.
On to TWLQPLNRTMNWMTSTAGFR, for which the amyloid nucleation score result was “inactive”.
With WTIWVKDSLVPVCTSF, the amyloid nucleation score was -1.03 ± 1.2.
Consider KGYLLRWLGEVYFVNYGSNS, for which the amyloid nucleation score was -0.585 ± 0.84.
For YYWRPIQVVCLLASCKRTWR the value was 7.749 ± 0.064; for TYDGSKAIVALSKGNKN, 0.915 ± 0.51; for FASRNISG, -0.054 ± 0.5.
Consider FNVKSSMRNPGCIPWHRATY, for which the amyloid nucleation score was -0.616 ± 1.7.
In turn, FVSPVTSSQNSPVIVVRSLL displayed an amyloid nucleation score of -0.561 ± 0.48.
The same measure for GKKAYALGMSYLESCL: 1.37 ± 0.73; for SCILS: “inactive”.
The same measure for TIDIV: 2.28 ± 0.13; for DLRNMKVNTQDVSFLSPRGG: 0.208 ± 0.29; for VQGLIQVSVYDRVAGCWHRI: -0.83 ± 0.66.
For GKMLFRGSGIRPCGALIGVK the value was -0.561 ± 1.1; for TFVLV, 0.332 ± 0.74; for MDQFDLGSYSCASFQDTPAL, 1.39 ± 0.18.
QLSTISFLQWSGSACSSTVH: the amyloid nucleation score is -0.49 ± 0.74.
LVGGCPLTRGRGYGRPRNGG showed an amyloid nucleation score of -1.9 ± 2.7.
For VVQGVTCSLIMYSTRNCLFR the value was -0.444 ± 1.6; for RICLLRRGVCTHNVDMVVMY, -0.873 ± 0.68.
The substance SFLSSGINRSRCY returned an amyloid nucleation score of 0.154 ± 0.32.
GEERHAAYTNWFFLRCLLTY displayed an amyloid nucleation score of -0.046 ± 0.65.
VWVHKAY showed an amyloid nucleation score of -0.021 ± 1.2.
In turn, FRFVG displayed an amyloid nucleation score of -1.53 ± 0.83.
VGVGFIHNLGTLEIQVT showed an amyloid nucleation score of -0.359 ± 0.36.
LVFWRLCERHRWLRGFESA: the amyloid nucleation score was -1.06 ± 1.5.
